B1: GST-HA-ATG16L1(231–607) [human] / TMEM59 peptide (residues 268–280), wild type [modified: long spacer (Tds) at the N-terminal end, used for immobilisation; long spacer (Tds) at the N-terminal end, used for immobilisation] [not stated] (parent complex)
chain 1: PLPVEQDDDIEVIVDETSDHTEETSPVRAISRAATKRLSQPAGGLLDSITNIFGRRSVSSFPVPQDNVDTHPGSGKEVRVPATALCVFDAHDGEVNAVQFSPGSRLLATGGMDRRVKLWEVFGEKCEFKGSLSGSNAGITSIEFDSAGSYLLAASNDFASRIWTVDDYRLRHTLTGHSGKVLSAKFLLDNARIVSGSHDRTLKLWDLRSKVCIKTVFAGSSCNDIVCTEQCVMSGHFDKKIRFWDIRSESIVREMELLGKITALDLNPERTELLSCSRDDLLKVIDLRTNAIKQTFSAPGFKCGSDWTRVVFSPDGSYVAAGSAEGSLYIWSVLTGKVEKVLSKQHSSSINAVAWSPSGSHVVSVDKGCKAVLWAQY
chain 2: YVPSEKLSIYGDL

Variants of: B1
Assay: peptide microarray; 800, 400 nM (n = 6); parent: 100; read off a plot

| percent of parent [% WT] | Variant |
| --- | --- |
| ~1 | chain 2 Y1A, chain 2 E5A, chain 2 Y10A, chain 2 L13A |
